We go through six molecules from publication PMC10516921 (Nature Communications, 2023).

Series [1] deals with human ferroptosis suppressor protein 1, full length, recombinant from E. coli (human) (UniProt Q9BRQ8). The series is described as follows: dynamic light scattering; DynaPro NanoStar, 8 °C or 20 °C, 5-10 μM protein in buffer B; also with NADH.
Series [2] deals with the molecule itself. The series is described as follows: SEC; Superdex 200 Increase 10/300 GL, buffer B (20 mM Tris-HCl pH 8.0, 150 mM NaCl), 0.5 ml/min, 20 °C, molecular weight markers. (Size exclusion chromatography separates by hydrodynamic size, large species first.)
Series [3] deals with the molecule itself. The series is described as follows: SEC + other: dynamic light scattering; in solution; the sentence points to Supplementary Fig. 4 as a whole (gel filtration in panels a, b; DLS in panel c).

A word on the stoichiometry N: it is the number of molecules, sites or subunits per partner or assembly.

For “human ferroptosis suppressor protein 1, full length, recombinant from E. coli (from UniProt Q9BRQ8 1-373) (enzyme)”, the stoichiometry N in series [1] was 2.

B1: Gallus gallus ferroptosis suppressor protein 1, full length (enzyme, Gallus gallus (chicken), UniProt E1BR24 1-373, looked up)
chain: MGSRLSVDDSVRVVIVGGGFGGIAAASQLKSWAVPFVLVDMRDAFHHNVAALRASVESGFARKTFISYSVTFGDSFRQGKVVGIDPERQQVLLSDGEELHYSHLILATGSDGPFPGKFNKVIDMESAIQTYEDMVKEIEKSERILVVGGGAAGVEMAAEIKTEYPAKEVTLIHSKIALADVELLQSVRQEVKEILLRKGVRLLLSEKVSNVENLTTNQFQKDMVVRTEKGTEVVVDMVVLCTGIKINSSAYATAFGDKLASNGALNVNKHLQLEGYDNIYAIGDCANLKEPKMAYHAELHANIVVSNIINSLTHKPLKTYQPGSLTFLLSMGKNDGVGQVKGYYVGHLLVTIAKSRDLFVSKSWKTMGQPMPS
notes: Ferroptosis suppressor protein 1 (FSP1, AIFM2) of chicken (Gallus gallus), full length, residues 1-373; gene optimized and synthesized, in pET-22b; also called cFSP1; chicken FSP1; source: E. coli BL21 (DE3), purified (Ni-Chelating Sepharose, Superdex 200 Increase)
Take B1: in series [2], the “stoichiometry N” value was determined as 2.

B2: Gallus gallus FSP1 residues 12-373 (cFSP1^ΔN), not methylated (domain or fragment, Gallus gallus (chicken), UniProt E1BR24 12-373, looked up)
chain: RVVIVGGGFGGIAAASQLKSWAVPFVLVDMRDAFHHNVAALRASVESGFARKTFISYSVTFGDSFRQGKVVGIDPERQQVLLSDGEELHYSHLILATGSDGPFPGKFNKVIDMESAIQTYEDMVKEIEKSERILVVGGGAAGVEMAAEIKTEYPAKEVTLIHSKIALADVELLQSVRQEVKEILLRKGVRLLLSEKVSNVENLTTNQFQKDMVVRTEKGTEVVVDMVVLCTGIKINSSAYATAFGDKLASNGALNVNKHLQLEGYDNIYAIGDCANLKEPKMAYHAELHANIVVSNIINSLTHKPLKTYQPGSLTFLLSMGKNDGVGQVKGYYVGHLLVTIAKSRDLFVSKSWKTMGQPMPS
notes: FSP1 (AIFM2) of chicken (Gallus gallus), residues 12-373; lacks the N-terminal myristoylation motif (residues 1-11); Same limits as the crystallized, methylated protein; also called native cFSP1^ΔN; source: E. coli BL21 (DE3), purified (Ni-Chelating Sepharose, Superdex 200 Increase)
Consider B2, for which, in series [2], the “stoichiometry N” value is 2.

B3: Gallus gallus FSP1 residues 12-373 (cFSP1^ΔN), reductively methylated (domain or fragment, Gallus gallus (chicken), UniProt E1BR24 12-373, looked up)
chain: RVVIVGGGFGGIAAASQLKSWAVPFVLVDMRDAFHHNVAALRASVESGFARKTFISYSVTFGDSFRQGKVVGIDPERQQVLLSDGEELHYSHLILATGSDGPFPGKFNKVIDMESAIQTYEDMVKEIEKSERILVVGGGAAGVEMAAEIKTEYPAKEVTLIHSKIALADVELLQSVRQEVKEILLRKGVRLLLSEKVSNVENLTTNQFQKDMVVRTEKGTEVVVDMVVLCTGIKINSSAYATAFGDKLASNGALNVNKHLQLEGYDNIYAIGDCANLKEPKMAYHAELHANIVVSNIINSLTHKPLKTYQPGSLTFLLSMGKNDGVGQVKGYYVGHLLVTIAKSRDLFVSKSWKTMGQPMPS
modifications: surface lysine residues modified by reductive methylation (formaldehyde and dimethylamine-borane complex)
notes: FSP1 (AIFM2) of chicken (Gallus gallus), residues 12-373; lacks the N-terminal myristoylation motif (residues 1-11); Crystallized substrate-free and with CoQ1; A selenomethionine derivative was used for phasing; also called methylated cFSP1^ΔN; source: E. coli BL21 (DE3), purified (Ni-chelating resin, HiTrap Heparin, reductive methylation, Superdex 200 Increase)
Take B3: the “stoichiometry N” value in series [2] worked out at 2.

B4: Gallus gallus FSP1 residues 1-318 (cFSP1^ΔCTD) (domain or fragment, Gallus gallus (chicken), UniProt E1BR24 1-318, looked up)
chain: MGSRLSVDDSVRVVIVGGGFGGIAAASQLKSWAVPFVLVDMRDAFHHNVAALRASVESGFARKTFISYSVTFGDSFRQGKVVGIDPERQQVLLSDGEELHYSHLILATGSDGPFPGKFNKVIDMESAIQTYEDMVKEIEKSERILVVGGGAAGVEMAAEIKTEYPAKEVTLIHSKIALADVELLQSVRQEVKEILLRKGVRLLLSEKVSNVENLTTNQFQKDMVVRTEKGTEVVVDMVVLCTGIKINSSAYATAFGDKLASNGALNVNKHLQLEGYDNIYAIGDCANLKEPKMAYHAELHANIVVSNIINSLTHKPLK
notes: FSP1 (AIFM2) of chicken (Gallus gallus), residues 1-318; lacks the C-terminal domain (319-373); source: E. coli BL21 (DE3), purified (Ni-Chelating Sepharose, Superdex 200 Increase)
On to B4, for which the “stoichiometry N” value in series [3] worked out at 2.

B5: human FSP1 residues 1-316 (hFSP1^ΔCTD), recombinant from E. coli (domain or fragment, UniProt Q9BRQ8 1-316, looked up)
chain: MGSQVSVESGALHVVIVGGGFGGIAAASQLQALNVPFMLVDMKDSFHHNVAALRASVETGFAKKTFISYSVTFKDNFRQGLVVGIDLKNQMVLLQGGEALPFSHLILATGSTGPFPGKFNEVSSQQAAIQAYEDMVRQVQRSRFIVVVGGGSAGVEMAAEIKTEYPEKEVTLIHSQVALADKELLPSVRQEVKEILLRKGVQLLLSERVSNLEELPLNEYREYIKVQTDKGTEVATNLVILCTGIKINSSAYRKAFESRLASSGALRVNEHLQVEGHSNVYAIGDCADVRTPKMAYLAGLHANIAVANIVNSVKQR
notes: FSP1 (AIFM2), human, residues 1-316; lacks the C-terminal domain; source: E. coli BL21 (DE3), purified (Ni-Chelating Sepharose, Ulp1 cleavage, Superdex 200 Increase); not shown: His6, N-terminal, cleaved; SUMO, N-terminal, cleaved
For the molecule B5, the “stoichiometry N” value in series [3] was 2.
